{
  "source": "patent US20110311550A1",
  "about": "(Scripps Research, published 2011)",
  "binders": {"B1": {"name": "N4 IgG (antibody, V domains shown)", "VH": "VQLLEQSGPEVKKPGDSLRISCKMSGDSLVTTWIGWVRQKPGQGLEWMGIINPGDSSTNIYPGDSATRYGPSFQGQVTISIDKSTSTAYLQWNNVKASDTGIYYCARHVPVPISGTFLWREREMHDFGYFDDWGQGTLVIVSS", "VL": "ELTLTQSPGTLSLSPGERATLSCRASQSVSNNYLAWYQQKPGQAPRLLIYGASSRATGIPDRFSGSGSGTGFTLIISRLEPEDFAVYYCQQYGSSSITFGQGTRLEIKR", "notes": "also called IgG N4"}},
  "assay_in_all_cases": "ELISA, lectin-captured E1E2 lysate, Ab 1 ug/ml",
  "key": {"[1]": {"target": "E1E2 complex (H77) with E1 mutation Y201A (HCV genotype 1a, isolate H77, UniProt P27958 192-383; P27958 384-746)"}, "[2]": {"target": "E1E2 complex (H77) with E1 mutation D206A (HCV genotype 1a, isolate H77, UniProt P27958 192-383; P27958 384-746)"}, "[3]": {"target": "E1E2 complex (H77) with E1 mutation N196A/N209A (HCV genotype 1a, isolate H77, UniProt P27958 192-383; P27958 384-746)"}, "[4]": {"target": "E1E2 complex (H77) with E1 mutation T292A (HCV genotype 1a, isolate H77, UniProt P27958 192-383; P27958 384-746)"}, "[5]": {"target": "E1E2 complex (H77) with E1 mutation G315A (HCV genotype 1a, isolate H77, UniProt P27958 192-383; P27958 384-746)"}, "[6]": {"target": "E1E2 complex (H77) with E1 mutation A319G (HCV genotype 1a, isolate H77, UniProt P27958 192-383; P27958 384-746)"}, "[7]": {"target": "E1E2 complex (H77) with E1 mutation M324A (HCV genotype 1a, isolate H77, UniProt P27958 192-383; P27958 384-746)"}, "[8]": {"target": "E1E2 complex (H77) with E1 mutation P328A (HCV genotype 1a, isolate H77, UniProt P27958 192-383; P27958 384-746)"}, "[9]": {"target": "E1E2 complex (H77) with E1 mutation P341A (HCV genotype 1a, isolate H77, UniProt P27958 192-383; P27958 384-746)"}, "[10]": {"target": "E1E2 complex (H77) with E1 mutation D346A (HCV genotype 1a, isolate H77, UniProt P27958 192-383; P27958 384-746)"}, "[11]": {"target": "E1E2 complex (H77) with E1 mutation G350A (HCV genotype 1a, isolate H77, UniProt P27958 192-383; P27958 384-746)"}, "[12]": {"target": "E1E2 complex (H77) with E2 mutation N623A (HCV genotype 1a, isolate H77, UniProt P27958 192-383; P27958 384-746)"}, "[13]": {"target": "E1E2 complex (H77) with E2 mutation Y624A (HCV genotype 1a, isolate H77, UniProt P27958 192-383; P27958 384-746)"}, "[14]": {"target": "E1E2 complex (H77) with E2 mutation H638A (HCV genotype 1a, isolate H77, UniProt P27958 192-383; P27958 384-746)"}, "[15]": {"target": "E1E2 complex (H77) with E2 mutation A642G (HCV genotype 1a, isolate H77, UniProt P27958 192-383; P27958 384-746)"}, "[16]": {"target": "E1E2 complex (H77) with E2 mutation T435A (HCV genotype 1a, isolate H77, UniProt P27958 192-383; P27958 384-746)"}, "[17]": {"target": "E1E2 complex (H77) with E2 mutation G436A (HCV genotype 1a, isolate H77, UniProt P27958 192-383; P27958 384-746)"}, "[18]": {"target": "E1E2 complex (H77) with E2 mutation Y443A (HCV genotype 1a, isolate H77, UniProt P27958 192-383; P27958 384-746)"}, "[19]": {"target": "E1E2 complex (H77) with E2 mutation N448A (HCV genotype 1a, isolate H77, UniProt P27958 192-383; P27958 384-746)"}, "[20]": {"target": "E1E2 complex (H77) with E2 mutation H617A (HCV genotype 1a, isolate H77, UniProt P27958 192-383; P27958 384-746)"}, "[21]": {"target": "E1E2 complex (H77) with E2 mutation Y618A (HCV genotype 1a, isolate H77, UniProt P27958 192-383; P27958 384-746)"}, "[22]": {"target": "E1E2 complex (H77) with E2 mutation P619A (HCV genotype 1a, isolate H77, UniProt P27958 192-383; P27958 384-746)"}},
  "data": [
    {"binder": "B1", "values": [
      {"measurement": "Binding relative to wt (%)", "setting": "[1]", "value": 7, "unit": "%"},
      {"measurement": "Binding relative to wt (%)", "setting": "[2]", "value": 17, "unit": "%"},
      {"measurement": "Binding relative to wt (%)", "setting": "[3]", "value": 21, "unit": "%"},
      {"measurement": "Binding relative to wt (%)", "setting": "[4]", "value": 104, "unit": "%"},
      {"measurement": "Binding relative to wt (%)", "setting": "[5]", "value": 87, "unit": "%"},
      {"measurement": "Binding relative to wt (%)", "setting": "[6]", "value": 113, "unit": "%"},
      {"measurement": "Binding relative to wt (%)", "setting": "[7]", "value": 89, "unit": "%"},
      {"measurement": "Binding relative to wt (%)", "setting": "[8]", "value": 127, "unit": "%"},
      {"measurement": "Binding relative to wt (%)", "setting": "[9]", "value": 105, "unit": "%"},
      {"measurement": "Binding relative to wt (%)", "setting": "[10]", "value": 83, "unit": "%"},
      {"measurement": "Binding relative to wt (%)", "setting": "[11]", "value": 68, "unit": "%"},
      {"measurement": "Binding relative to wt (%)", "setting": "[12]", "value": 54, "unit": "%"},
      {"measurement": "Binding relative to wt (%)", "setting": "[13]", "value": 59, "unit": "%"},
      {"measurement": "Binding relative to wt (%)", "setting": "[14]", "value": 12, "unit": "%"},
      {"measurement": "Binding relative to wt (%)", "setting": "[15]", "value": 65, "unit": "%"},
      {"measurement": "Binding relative to wt (%)", "setting": "[16]", "value": 122, "unit": "%"},
      {"measurement": "Binding relative to wt (%)", "setting": "[17]", "value": 107, "unit": "%"},
      {"measurement": "Binding relative to wt (%)", "setting": "[18]", "value": 5, "unit": "%"},
      {"measurement": "Binding relative to wt (%)", "setting": "[19]", "value": 48, "unit": "%"},
      {"measurement": "Binding relative to wt (%)", "setting": "[20]", "value": 21, "unit": "%"},
      {"measurement": "Binding relative to wt (%)", "setting": "[21]", "value": 33, "unit": "%"},
      {"measurement": "Binding relative to wt (%)", "setting": "[22]", "value": 41, "unit": "%"}
    ]}
  ]
}
